Results published in PMC4198461.

Target: T1, TRPV2, Q9WUD2
T1 chain: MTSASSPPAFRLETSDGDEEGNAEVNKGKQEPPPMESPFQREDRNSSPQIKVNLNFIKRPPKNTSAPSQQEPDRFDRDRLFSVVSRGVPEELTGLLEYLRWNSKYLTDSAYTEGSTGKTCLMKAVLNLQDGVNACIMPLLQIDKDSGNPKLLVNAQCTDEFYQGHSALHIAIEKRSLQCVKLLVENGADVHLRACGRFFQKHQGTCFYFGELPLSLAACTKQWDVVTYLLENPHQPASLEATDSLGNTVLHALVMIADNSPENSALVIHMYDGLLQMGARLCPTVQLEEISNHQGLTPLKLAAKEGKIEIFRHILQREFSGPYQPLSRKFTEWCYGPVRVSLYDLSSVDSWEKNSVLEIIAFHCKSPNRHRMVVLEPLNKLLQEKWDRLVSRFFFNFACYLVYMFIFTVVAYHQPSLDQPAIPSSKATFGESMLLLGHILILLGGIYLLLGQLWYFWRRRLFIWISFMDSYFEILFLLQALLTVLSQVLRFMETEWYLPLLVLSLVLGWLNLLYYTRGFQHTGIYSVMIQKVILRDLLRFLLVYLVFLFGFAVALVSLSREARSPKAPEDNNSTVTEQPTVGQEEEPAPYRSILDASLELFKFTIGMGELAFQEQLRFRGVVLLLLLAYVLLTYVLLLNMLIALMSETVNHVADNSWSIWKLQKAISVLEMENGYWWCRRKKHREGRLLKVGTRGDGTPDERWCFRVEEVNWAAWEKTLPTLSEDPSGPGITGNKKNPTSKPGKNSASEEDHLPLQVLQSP
Assay: SEC + native gel or EMSA + other: negative-stain EM
Details: remark: other sources report otherwise

B1: TRPV2, Q9WUD2 1-761 (natural protein)
chain: MTSASSPPAFRLETSDGDEEGNAEVNKGKQEPPPMESPFQREDRNSSPQIKVNLNFIKRPPKNTSAPSQQEPDRFDRDRLFSVVSRGVPEELTGLLEYLRWNSKYLTDSAYTEGSTGKTCLMKAVLNLQDGVNACIMPLLQIDKDSGNPKLLVNAQCTDEFYQGHSALHIAIEKRSLQCVKLLVENGADVHLRACGRFFQKHQGTCFYFGELPLSLAACTKQWDVVTYLLENPHQPASLEATDSLGNTVLHALVMIADNSPENSALVIHMYDGLLQMGARLCPTVQLEEISNHQGLTPLKLAAKEGKIEIFRHILQREFSGPYQPLSRKFTEWCYGPVRVSLYDLSSVDSWEKNSVLEIIAFHCKSPNRHRMVVLEPLNKLLQEKWDRLVSRFFFNFACYLVYMFIFTVVAYHQPSLDQPAIPSSKATFGESMLLLGHILILLGGIYLLLGQLWYFWRRRLFIWISFMDSYFEILFLLQALLTVLSQVLRFMETEWYLPLLVLSLVLGWLNLLYYTRGFQHTGIYSVMIQKVILRDLLRFLLVYLVFLFGFAVALVSLSREARSPKAPEDNNSTVTEQPTVGQEEEPAPYRSILDASLELFKFTIGMGELAFQEQLRFRGVVLLLLLAYVLLTYVLLLNMLIALMSETVNHVADNSWSIWKLQKAISVLEMENGYWWCRRKKHREGRLLKVGTRGDGTPDERWCFRVEEVNWAAWEKTLPTLSEDPSGPGITGNKKNPTSKPGKNSASEEDHLPLQVLQSP
stoichiometry N: 4
